Experimental data: US7807396

B1: recombinant rat insulysin with an N-terminal His6 affinity tag, expressed in baculovirus-infected Sf9 cells (protein)
chain: MNNPAIQRIEDHIVKSPEDKREYRGLELANGIKVLLISDPTTDKSSAALDVHIGSLSDPPNIPGLSHFCEHMLFLGTKKYPKENEYSQFLSEHAGSSNAFTSGEHTNYYFDVSHEHLEGALDRFAQFFLCPLFDASCKDREVNAVDSEHEKNVMNDAWRLFQLEKATGNPKHPFSKFGTGNKYTLETRPNQEGIDVREELLKFHSTYYSSNLMAICVLGRESLDDLTNLVVKLFSEVENKNVPLPEFPEHPFQEEHLKQLYKIVPIKDIRNLYVTFPIPDLQQYYKSNPGHYLGHLIGHEGPGSLLSELKSKGWVNTLVGGQKEGARGFMFFIINVDLTEEGLLHVEDIILHMFQYIQKLRAEGPQEWVFQECKDLNAVAFRFKDKERPRGYTSKIAGKLHYYPLNGVLTAEYLLEEFRPDLIDMVLDKLRPENVRVAIVSKSFEGKTDRTEQWYGTQYKQEAIPEDVIQKWQNADLNGKFKLPTKNEFIPTNFEILALEKDATPYPALIKDTAMSKLWFKQDDKFFLPKACLNFEFFSPFAYVDPLHCNMAYLYLELLKDSLNEYAYAAELAGLSYDLQNTIYGMYLSVKGYNDKQPILLKKITEKMATFEIDKKRFEIIKEAYMRSLNNFRAEQPHQHAMYYLRLLMTEVAWTKDELKEALDDVTLPRLKAFIPQLLSRLHIEALLHGNITKQAALGVMQMVEDTLIEHAHTKPLLPSQLVRYREVQLPDRGWFVYQRRNEVHNNCGIEIYYQTDMQSTSENMFLELFCQIISEPCFNTLRTKEQLGYIVFSGPRRANGIQGLRFIIQSEKPPHYLESRVEAFLITMEKAIEDMTEEAFQKHIQALAIRRLDKPKKLSAECAKYWGEIISQQYNYDRDNIEVAYLKTLSKDDIIKFYKEMLAVDAPRRHKVSVHVLAREMDSCPVVGEFPSQNDINLSEAPPLPQPEVIHNMTEFKRGLPLFPLVKPHINFMAAKL
B2: human neprilysin expressed from a lentiviral construct in primary neuronal cultures of neprilysin deficient mice (protein)
chain: GKSESQMDITDINTPKPKKKQRWTPLEISLSVLVLLLTIIAVTMIALYATYDDGICKSSDCIKSAARLIQNMDATTEPCTDFFKYACGGWLKRNVIPETSSRYGNFDILRDELEVVLKDVLQEPKTEDIVAVQKAKALYRSCINESAIDSRGGEPLLKLLPDIYGWPVATENWEQKYGASWTAEKAIAQLNSKYGKKVLINLFVGTDDKNSVNHVIHIDQPRLGLPSRDYYECTGIYKEACTAYVDFMISVARLIRQEERLPIDENQLALEMNKVMELEKEIANATAKPEDRNDPMLLYNKMTLAQIQNNFSLEINGKPFSWLNFTNEIMSTVNISITNEEDVVVYAPEYLTKLKPILTKYSARDLQNLMSWRFIMDLVSSLSRTYKESRNAFRKALYGTTSETATWRRCANYVNGNMENAVGRLYVEAAFAGESKHVVEDLIAQIREVFIQTLDDLTWMDAETKKRAEEKALAIKERIGYPDDIVSNDNKLNNEYLELNYKEDEYFENIIQNLKFSQSKQLKKLREKVDKDEWISGAAVVNAFYSSGRNQIVFPAGILQPPFFSAQQSNSLNYGGIGMVIGHEITHGFDDNGRNFNKDGDLVDWWTQQSASNFKEQSQCMVYQYGNFSWDLAGGQHLNGINTLGENIADNGGLGQAYRAYQNYIKKNGEEKLLPGLDLNHKQLFFLNFAQVWCGTYRPEYAVNSIKTDVHSPGNFRIIGTLQNSAEFSEAFHCRKNSYMNPEKKCRVW

Assays:
[1] = molecular target: amyloid beta peptide Aβ1-40
[2] = molecular target: aggregated amyloid β1-40 pre-coated on 96 well plates (synthetic amyloid plaque, synthaloid)
[3] = molecular target: T1, human β-endorphin1-31, P01189
T1 chain: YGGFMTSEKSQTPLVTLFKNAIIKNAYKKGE

[4] = molecular target: amyloid beta peptide Aβ1-42

| Protein | prevention of deposition of radiolabeled Aβ1-40 onto synthaloid, 60 minutes preincubation with insulysin (FIG. 9B) [1] | prevention of deposition of radiolabeled Aβ1-40 onto synthaloid, insulysin added at zero time (FIG. 9A) [1] | rate of cleavage of 25 µM Aβ1-40 [1] [µmols/min/mg enzyme] | sparing of neurotoxic effects on primary rat cortical neurons (30 µM Aβ1-40, 48 hrs) [1] | release of radioactivity from 125I-Aβ1-40 first deposited onto synthetic amyloid [2] | specific activity of the recombinant enzyme (disappearance of β-endorphin by HPLC) [3] [µmols/min/mg] | sparing of neurotoxic effects on primary rat cortical neurons (25 µM Aβ1-42, 48 hrs) [4] | 125I-Aβ1-40 peptide degradation in primary neuronal cultures [1] |
| --- | --- | --- | --- | --- | --- | --- | --- | --- |
| B1 | 50 ng insulysin is able to prevent the deposition of radiolabeled Aβ1-40 onto the synthetic amyloid | 50 ng of insulysin is able to prevent the deposition of radiolabeled Aβ1-40 | 1.2 | as little as 50 ng of insulysin was effective in sparing the neurotoxic effects of Aβ1-40 | After a 24 hr incubation with 5 µg of insulysin no radioactivity was released | 2.6 | 500 ng of insulysin was effective in sparing the neurotoxic effects of Aβ1-42 | – |
| B2 | – | – | – | – | – | – | – | neprilysin expressing neuronal cell cultures virtually destroyed all Aβ peptide in comparison to the controls |
